Experimental data published in US20190177705A1 (UNIVERSITEIT GENT, published 2019).

B1: unfused gp130 receptor fragment (encoded by pMG1) (other, human, UniProt P40189 760-918, looked up)
chain: STVVHSGYRHQVPSVQVFSRSESTQPLLDSEERPEDLQLVDHVDGGDGILPRQQYFKQNCSQHESSPDISHFERSKQVSSVNEEDFVRLKQQISDHISQSCGSGQMKMFQEVSAADAFGPGTEGQVERFETVGMEAATDEGMPKSYLPQTVRQGGYMPQ
notes: Background control, expressed in HEK293-T cells; also called unfused gp130 fragment

Legend:
[1] = biological target: Flag-gp130-RTp51 fusion protein (encoded by pMG2-RTp51) (human; HIV1) (UniProt P40189); assay: cell-based or functional assay
[2] = biological target: T1, HA-Tyk2(C)-p53(N) fusion protein (encoded by pMet7-HA-Tyk2(C)-p53(N)) (human, UniProt P04637 2-72); assay: kinase-substrate sensor assay, rPAPI-luciferase reporter in HEK293-T cells
T1 construct: range 2-72; Expressed in HEK293-T cells; not shown: HA tag

| Molecule | imidazole-dependent induction of the luciferase signal [1] [fold] | binding result [2] |
| --- | --- | --- |
| HA-Tyk2(R1027A)-RTp66 fusion protein (encoded by pMet7-HA-Tyk2(R1027A)-RTp66) | 36 |  |
| B1 |  | no binding |
